For this experiment, the target named is T1, hu-CD8A ECD (recombinant, coated on ELISA plates) (human, UniProt P01732 22-182).
T1 construct: also called Human CD8A ECD; not shown: C-terminal (His)x6 or Fc tag
Briefly: ELISA, VHH supernatants on hu-CD8A ECD coated plates. (In general: An ELISA detects its analyte on a solid surface through an enzyme-linked reagent.)

Positions count from the first letter of the chain named.

T1 sequence (P01732 22-182): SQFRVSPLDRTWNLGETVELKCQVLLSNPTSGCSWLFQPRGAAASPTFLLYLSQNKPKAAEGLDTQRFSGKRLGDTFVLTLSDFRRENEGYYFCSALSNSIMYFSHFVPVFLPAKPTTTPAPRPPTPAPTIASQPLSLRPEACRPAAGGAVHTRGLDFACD

B1: Clone 1D7 VHH (secreted VHH in TG1 supernatant) (VHH)
VHH: QVQLQESGGGLVQAGGSLRLSCAASGFTFDDYAIGWFRQAPGKEREGVSCISNIDGRTYYADSVKGRFTISSDNAKNTVYLQMNSLKPEDTAVYYCAAEGLHSCRDLYYGMDYWGKGTLVTVSS
notes: Expressed from phagemid pADL-23c
As to B1, the binding result was “binds”.

B2: Clone 2E7 VHH (secreted VHH in TG1 supernatant) (VHH)
VHH: B1 VHH with F27V, T28P, R57S
notes: as for B1
As for B2, the binding result was “binds”.

B3: Clone 2G7 VHH (secreted VHH in TG1 supernatant) (VHH)
VHH: B1 VHH with Q3K, Q5E, R57S, Y113H
notes: as for B1
Turning to B3, the binding result is “binds”.

B4: Clone 1E2 VHH (secreted VHH in TG1 supernatant) (VHH)
VHH: B1 VHH with S103P
notes: as for B1
On to B4, for which the binding result is “binds”.

B5: Clone 1B3 VHH (secreted VHH in TG1 supernatant) (VHH)
VHH: B1 VHH with R57H, R105K
notes: as for B1
For the molecule B5, the binding result is given as “binds”.

B6: Clone 2G1 VHH (secreted VHH in TG1 supernatant) (VHH)
VHH: B1 VHH with N53S, R57S, S72R, A75D, A97T, L119Q
notes: as for B1
For B6, the binding result is listed as “binds”.

B7: Clone 1B1 VHH (secreted VHH in TG1 supernatant) (VHH)
VHH: B1 VHH with R19K, D30N, R38P, S52I, R57S, T69P
notes: as for B1
On to B7, for which the binding result is reported as “binds”.

B8: Clone 2B10 VHH (secreted VHH in TG1 supernatant) (VHH)
VHH: B1 VHH with Q5V, R57S, H102R
notes: as for B1
As to B8, the binding result is reported as “binds”.

B9: Clone 3C3 VHH (secreted VHH in TG1 supernatant) (VHH)
VHH: QVQLVDSGGGLVQAGGSLRVSCAASGLTVSSEHMGWFRQAPGKQREFVAAISGNGGSTYYADSVKGRFTISRDNAKNTVYLQMNSLKPEDTAVYTCAADRQVWRVTSYHDYDYDSWGQGTLVTVSS
notes: as for B1
Turning to B9, the binding result is given as “binds”.

The record behind these values is US20260209353A1 (BINACEA PHARMA, published 2026).
